From paper PMC10811823

B1: Lgals3bp (galectin 3 binding protein): RAW/shM1 (MGAT3 silenced) (protein)
parent chain: MALLWLLSVFLLVPGTQGTEDGDMRLVNGASANEGRVEIFYRGRWGTVCDNLWNLLDAHVVCRALGYENATQALGRAAFGPGKGPIMLDEVECTGTESSLASCRSLGWMVSRCGHEKDAGVVCSNDTTGLHILDLSGELSDALGQIFDSQQGCDLFIQVTGQGYEDLSLCAHTLILRTNPEAQALWQVVGSSVIMRVDAECMPVVRDFLRYFYSRRIEVSMSSVKCLHKLASAYGATELQDYCGRLFATLLPQDPTFHTPLDLYAYARATGDSMLEDLCVQFLAWNFEPLTQSESWSAVPTTLIQALLPKSELAVSSELDLLKAVDQWSTETIASHEDIERLVEQVRFPMMLPQELFELQFNLSLYQDHQALFQRKTMQALEFHTVPVEVLAKYKGLNLTEDTYKPRLYTSSTWSSLVMASTWRAQRYEYNRYNQLYTYGYGSVARYNSYQSFQTPQHPSFLFKDKQISWSATYLPTMQSCWNYGFSCTSNELPVLGLTTSSYSNPTIGYENRVLILCGGYSVVDVTSFEGSKAPIPTALDTNSSKTPSLFPCASGAFSSFRVVIRPFYLTNSTDMV
B2: Lgals3bp (galectin 3 binding protein): RAW/MGAT3 (MGAT3 overexpressed) (protein)
parent chain: B1 parent chain
B3: Lgals3bp (galectin 3 binding protein): N69A/LG (protein)
parent chain: B1 parent chain

Columns and labels:
western blot = conditions: glycan changed form; control: control RAW264.7
[1] = Co-IP/western after MG132; conditions: glycan changed form; control: control RAW264.7
[2] = CHX chase, western blot (protein persistence); conditions: glycan changed form; control: control RAW264.7
[3] = Co-IP/western after MG132, HEK 293T; conditions: glycan lost; control: WT/LG

Protein | expression_or_secretion (western blot) | other: ubiquitination [1] | degradation_or_half_life [2] | other: ubiquitination [3]
B1 | increases | decreases | increases | –
B2 | – | – | decreases | –
B3 | – | – | – | decreases
